Changes are numbered by the printed parent chain.
B1: 571 (protein)
chain: LDNGLARTPTMGWLHWERFMCNLDCQEEPDSCISEKLFMEMAERMVSEGWKDAGYEYLCIDDCWMAPQRDSEGRLQADPQRFPHGIRQLANHVHSKGLKLGIYADVGNKTCAGFPGSFGYYDIDAQTFADWGVDLLKFDGCYCDSLENLADGYKHMSLALNRTGRSIVYSCEWPLYMWPFQKPNYTEIRQYCNHWRNFADIDDSWASIKSILDWTSRNQERIVDVAGPGGWNDPDMLVIGNFGLSWDQQVTQMALWAIMAAPLFMSNDLRHISPQAKALLQDKDVIAINQDPLGKQGYQLRKGDKFEVWERPLSGDAWAVAIINRQEIGGPRSYTIPVASLGKGVACNPACFITQLLPVKRQLGFYNWTSRLKSHINPTGTVLLQLENTMQMSLKDLL
modifications: Synthetic Polypeptide sequence of Variant No. 571 of mature Human GLA
B2: 579 (protein)
chain: B1 chain with W246P, K305N
modifications: Synthetic Polypeptide sequence of Variant No. 579 of mature Human GLA
B3: 583 (protein)
chain: B1 chain with S210A, K305N, A350T
modifications: Synthetic Polypeptide sequence of Variant No. 583 of mature Human GLA
B4: 573 (protein)
chain: B1 chain with K305N, S314A
modifications: Synthetic Polypeptide sequence of Variant No. 573 of mature Human GLA
B5: 575 (protein)
chain: B1 chain with K305N, S314N
modifications: Synthetic Polypeptide sequence of Variant No. 575 of mature Human GLA
B6: 572 (protein)
chain: B1 chain with K305L
modifications: Synthetic Polypeptide sequence of Variant No. 572 of mature Human GLA
B7: 585 (protein)
chain: B1 chain with S210K, K305N
modifications: Synthetic Polypeptide sequence of Variant No. 585 of mature Human GLA
B8: 577 (protein)
chain: B1 chain with W246A, K305N
modifications: Synthetic Polypeptide sequence of Variant No. 577 of mature Human GLA
B9: 584 (protein)
chain: B1 chain with S210E, K305N
modifications: Synthetic Polypeptide sequence of Variant No. 584 of mature Human GLA
B10: 574 (protein)
chain: B1 chain with K305N, S314H
modifications: Synthetic Polypeptide sequence of Variant No. 574 of mature Human GLA
B11: 580 (protein)
chain: B1 chain with W246R, K305N
modifications: Synthetic Polypeptide sequence of Variant No. 580 of mature Human GLA
B12: 582 (protein)
chain: B1 chain with S210A, K305N
modifications: Synthetic Polypeptide sequence of Variant No. 582 of mature Human GLA
B13: 576 (protein)
chain: B1 chain with K305N, S314Y
modifications: Synthetic Polypeptide sequence of Variant No. 576 of mature Human GLA
B14: 581 (protein)
chain: B1 chain with W246S, K305N
modifications: Synthetic Polypeptide sequence of Variant No. 581 of mature Human GLA
B15: 520 (protein)
chain: B1 chain with A77S, K305N
modifications: Synthetic Polypeptide sequence of Variant No. 520 of mature Human GLA
B16: 578 (protein)
chain: B1 chain with W246I, K305N
modifications: Synthetic Polypeptide sequence of Variant No. 578 of mature Human GLA

Assays:
Type in all cases: biochemical
[1] = HTP-analysis of yeast culture supernatants, no challenge (MUGal hydrolysis); settings: activity of the variant/activity of Rd3BB (SEQ ID NO: 13)
In short: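 GLA variants were expressed in INVSc1 yeast grown in SD-Ura broth with glucose at 30° C., and culture supernatants were collected after 66-84 h. Supernatant was mixed with McIlvaine buffer pH 4.8 and MUGal (2 mM stock) in 50 mM citrate, 200 mM KCl, pH 4.6, incubated at 37° C. for 30-180 minutes, then quenched with sodium carbonate.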

[2] = HTP-analysis of supernatants pretreated with acid (MUGal hydrolysis); settings: activity of the variant/activity of Rd3BB (SEQ ID NO: 13); challenge at pH 3.7
In short: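 GLA variants were secreted from INVSc1 yeast grown 66-84 h at 30° C. in SD-Ura with 2% glucose; supernatants were mixed with McIlvaine buffer pH 3.3-4.3 and held at 37° C. for 1-3 h. Residual activity on MUGal at pH 4.8 was then measured by fluorescence.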

[3] = HTP-analysis of supernatants pretreated with base (MUGal hydrolysis); settings: activity of the variant/activity of Rd3BB (SEQ ID NO: 13); challenge at pH 9.7
In short: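 GLA variants secreted from yeast INVSc1; culture supernatants pre-incubated with McIlvaine buffer pH 7.0–8.2 or 200 mM bicarbonate pH 9.1–9.7 at 37° C. for 1–18 h. Residual activity: MUGal (4 mM stock) hydrolysis at pH 4.3–4.8, 37° C., 30–180 min, carbonate quench; fluorescence Ex 355/Em 448 nm.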

Molecule	Relative Activity of GLA Variants After No Challenge (NC) [1]	Relative Activity of GLA Variants After Challenge at pH 3.7 [2]	Relative Activity of GLA Variants After Challenge at pH 9.7 [3]
B1	+ (+ = 1.5 to 5 relative activity over Rd3BB (SEQ ID NO: 13))	+ (+ = 1.5 to 5 relative activity over Rd3BB (SEQ ID NO: 13))	++ (++ = >5 to 10 relative activity over Rd3BB (SEQ ID NO: 13))
B2	+ (+ = 1.5 to 5 relative activity over Rd3BB (SEQ ID NO: 13))	+++ (+++ = >10 relative activity over Rd3BB (SEQ ID NO: 13))	++ (++ = >5 to 10 relative activity over Rd3BB (SEQ ID NO: 13))
B3	+ (+ = 1.5 to 5 relative activity over Rd3BB (SEQ ID NO: 13))	+ (+ = 1.5 to 5 relative activity over Rd3BB (SEQ ID NO: 13))	++ (++ = >5 to 10 relative activity over Rd3BB (SEQ ID NO: 13))
B4	+ (+ = 1.5 to 5 relative activity over Rd3BB (SEQ ID NO: 13))	+ (+ = 1.5 to 5 relative activity over Rd3BB (SEQ ID NO: 13))	++ (++ = >5 to 10 relative activity over Rd3BB (SEQ ID NO: 13))
B5	+ (+ = 1.5 to 5 relative activity over Rd3BB (SEQ ID NO: 13))	+ (+ = 1.5 to 5 relative activity over Rd3BB (SEQ ID NO: 13))	++ (++ = >5 to 10 relative activity over Rd3BB (SEQ ID NO: 13))
B6	+ (+ = 1.5 to 5 relative activity over Rd3BB (SEQ ID NO: 13))	+++ (+++ = >10 relative activity over Rd3BB (SEQ ID NO: 13))	++ (++ = >5 to 10 relative activity over Rd3BB (SEQ ID NO: 13))
B7	+ (+ = 1.5 to 5 relative activity over Rd3BB (SEQ ID NO: 13))	+ (+ = 1.5 to 5 relative activity over Rd3BB (SEQ ID NO: 13))	++ (++ = >5 to 10 relative activity over Rd3BB (SEQ ID NO: 13))
B8	+ (+ = 1.5 to 5 relative activity over Rd3BB (SEQ ID NO: 13))	+++ (+++ = >10 relative activity over Rd3BB (SEQ ID NO: 13))	++ (++ = >5 to 10 relative activity over Rd3BB (SEQ ID NO: 13))
B9	+ (+ = 1.5 to 5 relative activity over Rd3BB (SEQ ID NO: 13))	+ (+ = 1.5 to 5 relative activity over Rd3BB (SEQ ID NO: 13))	++ (++ = >5 to 10 relative activity over Rd3BB (SEQ ID NO: 13))
B10	+ (+ = 1.5 to 5 relative activity over Rd3BB (SEQ ID NO: 13))	+ (+ = 1.5 to 5 relative activity over Rd3BB (SEQ ID NO: 13))	++ (++ = >5 to 10 relative activity over Rd3BB (SEQ ID NO: 13))
B11	+ (+ = 1.5 to 5 relative activity over Rd3BB (SEQ ID NO: 13))	+++ (+++ = >10 relative activity over Rd3BB (SEQ ID NO: 13))	++ (++ = >5 to 10 relative activity over Rd3BB (SEQ ID NO: 13))
B12	+ (+ = 1.5 to 5 relative activity over Rd3BB (SEQ ID NO: 13))	+ (+ = 1.5 to 5 relative activity over Rd3BB (SEQ ID NO: 13))	++ (++ = >5 to 10 relative activity over Rd3BB (SEQ ID NO: 13))
B13	+ (+ = 1.5 to 5 relative activity over Rd3BB (SEQ ID NO: 13))	+ (+ = 1.5 to 5 relative activity over Rd3BB (SEQ ID NO: 13))	++ (++ = >5 to 10 relative activity over Rd3BB (SEQ ID NO: 13))
B14	+ (+ = 1.5 to 5 relative activity over Rd3BB (SEQ ID NO: 13))	++ (++ = >5 to 10 relative activity over Rd3BB (SEQ ID NO: 13))	++ (++ = >5 to 10 relative activity over Rd3BB (SEQ ID NO: 13))
B15	+ (+ = 1.5 to 5 relative activity over Rd3BB (SEQ ID NO: 13))	+ (+ = 1.5 to 5 relative activity over Rd3BB (SEQ ID NO: 13))	+ (+ = 1.5 to 5 relative activity over Rd3BB (SEQ ID NO: 13))
B16	+ (+ = 1.5 to 5 relative activity over Rd3BB (SEQ ID NO: 13))	+++ (+++ = >10 relative activity over Rd3BB (SEQ ID NO: 13))	++ (++ = >5 to 10 relative activity over Rd3BB (SEQ ID NO: 13))

— patent publication US11278600B2, “Human alpha-galactosidase variants” (Codexis, Inc., priority 2014, dated 2022)
